The values below are quoted from earlier work in PMC11402941.

The target in one data set is PSGL-1 (Homo sapiens) (UniProt Q14242).
A further data set has as its target VSIG3 (Homo sapiens) (UniProt Q5DX21).
UniProt Q5DX21, sequence (Q5DX21 23-241): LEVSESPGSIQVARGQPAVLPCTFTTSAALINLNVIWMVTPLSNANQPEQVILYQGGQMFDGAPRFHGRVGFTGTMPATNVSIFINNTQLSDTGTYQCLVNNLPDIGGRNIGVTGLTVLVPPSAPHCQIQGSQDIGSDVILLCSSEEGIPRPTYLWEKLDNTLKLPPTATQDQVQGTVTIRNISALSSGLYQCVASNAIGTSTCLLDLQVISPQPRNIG

UniProt Q14242, sequence (Q14242 42-320): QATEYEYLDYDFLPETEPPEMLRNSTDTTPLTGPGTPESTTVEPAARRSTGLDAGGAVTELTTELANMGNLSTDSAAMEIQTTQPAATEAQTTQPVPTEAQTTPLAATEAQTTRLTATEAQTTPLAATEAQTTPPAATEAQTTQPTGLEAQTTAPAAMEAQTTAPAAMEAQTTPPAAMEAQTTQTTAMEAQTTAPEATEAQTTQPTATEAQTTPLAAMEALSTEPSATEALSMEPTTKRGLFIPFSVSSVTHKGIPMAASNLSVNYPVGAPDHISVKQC

With VISTA (from UniProt Q9H7M9), the Kd – broadly, the constant that tells how readily two partners part at equilibrium – was 0.004 µM with PSGL-1 (Homo sapiens) and 0.08 µM in the data set with VSIG3 (Homo sapiens).
